First the molecules themselves.
B1: RSV/B.099 (other)
chain: QNITEEFYQSTCSAVSRGYLSALRTGWYTSVITIELSNIKEVKCNGTDTKVKLIKQELDKYKNAVTELQLLMQNTPAVNNRARREAPQYMNYTINTTKNLNVSISKKRKRRFLGFLLGVGSAIASGIAVCKVLHLEGEVNKIKNALQLTNKAVVSLSNGVSVLTFRVLDLKNYINNQLLPMLNRQSCRISNIETVIEFQQKNSRLLEITREFSVNAGVTTPLSTYMLTNSELLSLINDMPITNDQKKLMSSNVQIVRQQSYSIMCIIKEEVLAYVVQLPIYGVIDTPCWKLHTSPLCTTNIKEGSNICLTRTDRGWYCDNAGSVSFFPQADTCKVQSNRVFCDTMNSLTLPSEVSLCNTDIFNSKYDCKIMTSKTDISSSVITSLGAIVSCYGKTKCTASNKNRGIIKTFSNGCDYVSNKGVDTVSVGNTLYYVNKLEGKNLYVKGEPIINYYDPLVFPSDRFDASISQVNEAINQSLAFIRRSDELLGSGGSGSGSGGSEKAAKAEEAARKMEELFKKHKIVAVLRANSVEEAIEKAVAVFAGGVHLIEITFTVPDADTVIKALSVLKEKGAIIGAGTVTSVEQARKAVESGAEFIVSPHLDEEISQFAKEKGVFYMPGVMTPTELVKAMKLGHTILKLFPGEVVGPQFVKAMKGPFPNVKFVPTGGVNLDNVAEWFKAGVLAVGVGSALVKGTPDEVREKAKAFVEKIRGATELEHHHHHH
B2: RSV/B.123 (other)
chain: B1 chain with T375D, D464A
B3: RSV/B.100 (other)
chain: B1 chain with T224P
B4: RSV/B.093 (other)
chain: B1 chain with V42T, T375D, D461A, F463W, D464A
B5: RSV/B.002 (other)
chain: B1 chain with V42T, R462E, A473K
notes: DS-Cav1 control; also called DS-Cav1 RSV/B.002
B6: RSV/B.081 (other)
chain: B1 chain with V42T, T375D, D461A, D464A
B7: RSV/B.171 (other)
chain: QNITEEFYQSTCSAVSRGYLSALRTGWYTSVITIELSNIKETKCNGTDTKVKLIKQELDKYKNAVTELQLLMQNTPAVNNRARREAPQYMNYTINTTKNLNVSISKKRKRRFLGFLLGVGSAIASGIAVCKVLHLEGEVNKIKNALQLTNKAVVSLSNGVSVLTFRVLDLKNYINNQLLPMLNRQSCRISNIETVIEFQQKNSRLLEITREFSVNAGVTTPLSTYMLTNSELLSLINDMPITNDQKKLMSSNVQIVRQQSYSIMCIIKEEVLAYVVQLPIYGVIDTPCWKLHTSPLCTTNIKEGSNICLTRTDRGWYCDNAGSVSFFPQADTCKVQSNRVFCDTMNSLTLPSEVSLCNTDIFNSKYDCKIMTSKDDISSSVITSLGAIVSCYGKTKCTASNKNRGIIKTFSNGCDYVSNKGVDTVSVGNTLYYVNKLEGKNLYVKGEPIINYYDPLVFPSDRFAASISQVNEAINQSREIIRAINIVRKIASEKGSGGSGSGSGGSEKAAKAEEAARKMEELFKKHKIVAVLRANSVEEAIEKAVAVFAGGVHLIEITFTVPDADTVIKALSVLKEKGAIIGAGTVTSVEQARKAVESGAEFIVSPHLDEEISQFAKEKGVFYMPGVMTPTELVKAMKLGHTILKLFPGEVVGPQFVKAMKGPFPNVKFVPTGGVNLDNVAEWFKAGVLAVGVGSALVKGTPDEVREKAKAFVEKIRGATELEHHHHHH
B8: RSV/B.147 (other)
chain: B7 chain with D375T, A464D
B9: RSV/B.172 (other)
chain: B7 chain with T224P
B10: RSV/B.195 (other)
chain: B7 chain with D375T, R462E, A464D, A473K
B11: RSV/B.178 (other)
chain: B7 chain with T224P, D461A
B12: RSV/B.189 (other)
chain: B7 chain with D461A, F463W
B13: RSV/B.160 (other)
chain: B7 chain with T224P, F463W
B14: RSV/B.148 (other)
chain: QNITEEFYQSTCSAVSRGYLSALRTGWYTSVITIELSNIKETKCNGTDTKVKLIKQELDKYKNAVTELQLLMQNTPAVNNRARREAPQYMNYTINTTKNLNVSISKKRKRRFLGFLLGVGSAIASGIAVCKVLHLEGEVNKIKNALQLTNKAVVSLSNGVSVLTFRVLDLKNYINNQLLPMLNRQSCRISNIETVIEFQQKNSRLLEITREFSVNAGVTTPLSPYMLTNSELLSLINDMPITNDQKKLMSSNVQIVRQQSYSIMCIIKEEVLAYVVQLPIYGVIDTPCWKLHTSPLCTTNIKEGSNICLTRTDRGWYCDNAGSVSFFPQADTCKVQSNRVFCDTMNSLTLPSEVSLCNTDIFNSKYDCKIMTSKTDISSSVITSLGAIVSCYGKTKCTASNKNRGIIKTFSNGCDYVSNKGVDTVSVGNTLYYVNKLEGKNLYVKGEPIINYYDPLVFPSDRFDASISQVNEAINQSREIIRAINIVRKIASEKGSGGSGSGSGGSEKAAKAEEAARKMEELFKKHKIVAVLRANSVEEAIEKAVAVFAGGVHLIEITFTVPDADTVIKALSVLKEKGAIIGAGTVTSVEQARKAVESGAEFIVSPHLDEEISQFAKEKGVFYMPGVMTPTELVKAMKLGHTILKLFPGEVVGPQFVKAMKGPFPNVKFVPTGGVNLDNVAEWFKAGVLAVGVGSALVKGTPDEVREKAKAFVEKIRGATELLEHHHHHH

Substitutions are numbered along the chain they refer to.

The assay has as its target T1, I53-50B.4PosT1.
T1 construct: also called second component; CompB
In words: in vitro assembly with I53-50B, DLS. The protocol: Selected constructs were incubated with a second component, I53-50B, to form nanostructures. Dynamic Light Scattering (DLS) and negative-stain electron microscopy (nsEM) confirm assembly as nanostructure. A representative electron micrograph is shown in FIG. 5 (RSV/B.195, having the DS-Cav).
Assembly: Molar concentrations for RSV/B or RSV/A trimers fused to I53-50AΔcys and I53-50B (second component, using the sequence of I53-50B.4PosT1, SEQ ID NO:46) were determined using UV-Vis spectroscopy. Absorbance values at 280 nm were collected and divided by calculated molar extinction coefficients (ExPASy). The assembly reaction to produce RSVB antigen-bearing nanostructures was performed in vitro with the addition of components as follows: RSV F trimers fused to I53-50AΔcys were added to PCR tubes in 1.5× molar excess of I53-50B, then assembly buffer (20 mM Tris pH 7.4, 250 mM NaCl, 4% sucrose) was added to the sample in PCR tubes, and finally I53-50B was added to the reaction to bring the assemblies to a final concentration of 7.5 μM and a final volume of 47.5 μL. The reaction was incubated at ambient temperature for ˜30 minutes with gentle rocking prior to subsequent measurement by dynamic light scattering (DLS). All constructs were assembly competent under the conditions tested. Prior to nsEM analysis or immunogenicity studies, assembled nanostructures were further purified by size exclusion chromatography over a Superose 6 Increase 10/300 GL column into 20 mM Tris pH 7.4, 250 mM NaCl, 4% sucrose.
Consider B1, for which the binding result is on record as “binds”. Then B2, with “binds”; and B3, with “binds”; and B4, with “binds”. Then B5, with “binds”; and B6, with “binds”. In the case of B7 it was “binds”; in that of B8, “binds”. Take B9: the binding result is “binds”. In the case of B10 it was “binds”; in that of B11, “binds”. In the case of B12 it was “binds”; in that of B13, “binds”; in that of B14, “binds”.

(Values after patent publication US20250188131A1 (ICOSAVAX, published 2025).)
